# Test results: patent US20150315260A1 (Sanofi, published 2015)
# Like-named read-outs stand apart in the source and are kept apart here. Starred links: 1 amine or outer side, 2 acyl side, 3 side chain; linkers in the order of their positions; H or OH if unused. Non-standard residues stand in square brackets, D forms with d. Groups on a side chain read outwards from the residue. No end group written: not given here. *: point of attachment. γGlu = O=C(O)[C@H](CCC(=O)[*:2])N[*:1]; Stearoyl = CCCCCCCCCCCCCCCCCC(=O)*; Palmitoyl = CCCCCCCCCCCCCCCC(=O)*; AEEA = NCCOCCOCC(=O)O; Aib = CC(C)(N)C(=O)O
# T1: human GIP receptor (human, UniProt P48546 22-466)
# T1 sequence (looked up): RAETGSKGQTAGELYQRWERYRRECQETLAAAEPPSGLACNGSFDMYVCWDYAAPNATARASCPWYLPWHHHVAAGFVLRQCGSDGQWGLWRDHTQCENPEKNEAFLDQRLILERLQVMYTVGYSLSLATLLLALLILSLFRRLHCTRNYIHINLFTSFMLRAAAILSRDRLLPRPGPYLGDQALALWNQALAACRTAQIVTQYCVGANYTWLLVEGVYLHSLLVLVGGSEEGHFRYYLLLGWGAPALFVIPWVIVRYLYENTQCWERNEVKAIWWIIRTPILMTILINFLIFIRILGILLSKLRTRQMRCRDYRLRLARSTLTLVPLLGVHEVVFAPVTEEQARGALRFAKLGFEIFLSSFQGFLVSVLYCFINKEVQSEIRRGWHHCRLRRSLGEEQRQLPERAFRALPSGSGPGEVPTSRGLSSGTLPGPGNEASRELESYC
# Key:
# Assay in all cases: cell-based or functional assay
# [1] = molecular target: T2, human glucagon receptor (human, UniProt P47871 26-477)
# T2 sequence (P47871 26-477): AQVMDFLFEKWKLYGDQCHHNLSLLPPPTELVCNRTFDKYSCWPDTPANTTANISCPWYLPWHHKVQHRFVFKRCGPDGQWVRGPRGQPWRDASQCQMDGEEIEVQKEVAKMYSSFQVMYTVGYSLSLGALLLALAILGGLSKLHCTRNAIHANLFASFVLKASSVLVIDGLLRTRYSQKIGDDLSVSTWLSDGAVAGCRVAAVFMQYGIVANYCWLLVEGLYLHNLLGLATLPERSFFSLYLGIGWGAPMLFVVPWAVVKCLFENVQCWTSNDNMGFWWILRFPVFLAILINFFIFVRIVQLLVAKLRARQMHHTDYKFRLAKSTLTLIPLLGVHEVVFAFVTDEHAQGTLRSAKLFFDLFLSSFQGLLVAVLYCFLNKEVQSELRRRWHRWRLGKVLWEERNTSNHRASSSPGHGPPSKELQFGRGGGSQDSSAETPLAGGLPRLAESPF
# [2] = molecular target: T1, human GIP receptor
# [3] = molecular target: T3, human GLP-1 receptor (human, UniProt P43220 24-463)
# [4] = molecular target: T2, human glucagon receptor; remark: listed apart in the source
# [5] = molecular target: T1, human GIP receptor; remark: listed apart in the source
# [6] = molecular target: T3, human GLP-1 receptor; remark: listed apart in the source
binder,measurement,setting,value
H[Aib]QGTFTSDLSKQK([AEEA-AEEA-γGlu-Stearoyl])DEQRAKLFIEWL[Aib]AGGPSSGAPPPS-NH2 (N-terminus assumed; SMILES CCCCCCCCCCCCCCCCCC(=O)N[C@@H](CCC(=O)NCCOCCOCC(=O)NCCOCCOCC(=O)NCCCC[C@H](NC(=O)[C@H](CCC(N)=O)NC(=O)[C@H](CCCCN)NC(=O)[C@H](CO)NC(=O)[C@H](CC(C)C)NC(=O)[C@H](CC(=O)O)NC(=O)[C@H](CO)NC(=O)[C@@H](NC(=O)[C@H](Cc1ccccc1)NC(=O)[C@@H](NC(=O)CNC(=O)[C@H](CCC(N)=O)NC(=O)C(C)(C)NC(=O)[C@@H](N)Cc1c[nH]cn1)[C@@H](C)O)[C@@H](C)O)C(=O)N[C@@H](CC(=O)O)C(=O)N[C@@H](CCC(=O)O)C(=O)N[C@@H](CCC(N)=O)C(=O)N[C@@H](CCCNC(=N)N)C(=O)N[C@@H](C)C(=O)N[C@@H](CCCCN)C(=O)N[C@@H](CC(C)C)C(=O)N[C@@H](Cc1ccccc1)C(=O)N[C@H](C(=O)N[C@@H](CCC(=O)O)C(=O)N[C@@H](Cc1c[nH]c2ccccc12)C(=O)N[C@@H](CC(C)C)C(=O)NC(C)(C)C(=O)N[C@@H](C)C(=O)NCC(=O)NCC(=O)N1CCC[C@H]1C(=O)N[C@@H](CO)C(=O)N[C@@H](CO)C(=O)NCC(=O)N[C@@H](C)C(=O)N1CCC[C@H]1C(=O)N1CCC[C@H]1C(=O)N1CCC[C@H]1C(=O)N[C@@H](CO)C(N)=O)[C@@H](C)CC)C(=O)O) [exendin-4 derivative SEQ ID NO: 17],EC50 hGlucagon-R (cAMP formation),[1],0.0162 nM
same,EC50 hGIP-R (cAMP formation),[2],0.906 nM
same,EC50 hGLP-1R (cAMP formation),[3],0.0028 nM
H[Aib]QGTFTSDLSKQK([AEEA-AEEA-γGlu-Palmitoyl])DEQRAKLFIEWL[Aib]AGGPSSGAPPPS-NH2 (N-terminus assumed; SMILES CCCCCCCCCCCCCCCC(=O)N[C@@H](CCC(=O)NCCOCCOCC(=O)NCCOCCOCC(=O)NCCCC[C@H](NC(=O)[C@H](CCC(N)=O)NC(=O)[C@H](CCCCN)NC(=O)[C@H](CO)NC(=O)[C@H](CC(C)C)NC(=O)[C@H](CC(=O)O)NC(=O)[C@H](CO)NC(=O)[C@@H](NC(=O)[C@H](Cc1ccccc1)NC(=O)[C@@H](NC(=O)CNC(=O)[C@H](CCC(N)=O)NC(=O)C(C)(C)NC(=O)[C@@H](N)Cc1c[nH]cn1)[C@@H](C)O)[C@@H](C)O)C(=O)N[C@@H](CC(=O)O)C(=O)N[C@@H](CCC(=O)O)C(=O)N[C@@H](CCC(N)=O)C(=O)N[C@@H](CCCNC(=N)N)C(=O)N[C@@H](C)C(=O)N[C@@H](CCCCN)C(=O)N[C@@H](CC(C)C)C(=O)N[C@@H](Cc1ccccc1)C(=O)N[C@H](C(=O)N[C@@H](CCC(=O)O)C(=O)N[C@@H](Cc1c[nH]c2ccccc12)C(=O)N[C@@H](CC(C)C)C(=O)NC(C)(C)C(=O)N[C@@H](C)C(=O)NCC(=O)NCC(=O)N1CCC[C@H]1C(=O)N[C@@H](CO)C(=O)N[C@@H](CO)C(=O)NCC(=O)N[C@@H](C)C(=O)N1CCC[C@H]1C(=O)N1CCC[C@H]1C(=O)N1CCC[C@H]1C(=O)N[C@@H](CO)C(N)=O)[C@@H](C)CC)C(=O)O) [exendin-4 derivative SEQ ID NO: 16],EC50 hGlucagon-R (cAMP formation),[1],0.042 nM
same,EC50 hGIP-R (cAMP formation),[2],1.87 nM
same,EC50 hGLP-1R (cAMP formation),[3],0.002 nM
H[Aib]QGTFTSDLSKQK([AEEA-AEEA-AEEA-Stearoyl])DEQRAKLFIEWL[Aib]AGGPSSGAPPPS-NH2 (N-terminus assumed; SMILES CCCCCCCCCCCCCCCCCC(=O)NCCOCCOCC(=O)NCCOCCOCC(=O)NCCOCCOCC(=O)NCCCC[C@H](NC(=O)[C@H](CCC(N)=O)NC(=O)[C@H](CCCCN)NC(=O)[C@H](CO)NC(=O)[C@H](CC(C)C)NC(=O)[C@H](CC(=O)O)NC(=O)[C@H](CO)NC(=O)[C@@H](NC(=O)[C@H](Cc1ccccc1)NC(=O)[C@@H](NC(=O)CNC(=O)[C@H](CCC(N)=O)NC(=O)C(C)(C)NC(=O)[C@@H](N)Cc1c[nH]cn1)[C@@H](C)O)[C@@H](C)O)C(=O)N[C@@H](CC(=O)O)C(=O)N[C@@H](CCC(=O)O)C(=O)N[C@@H](CCC(N)=O)C(=O)N[C@@H](CCCNC(=N)N)C(=O)N[C@@H](C)C(=O)N[C@@H](CCCCN)C(=O)N[C@@H](CC(C)C)C(=O)N[C@@H](Cc1ccccc1)C(=O)N[C@H](C(=O)N[C@@H](CCC(=O)O)C(=O)N[C@@H](Cc1c[nH]c2ccccc12)C(=O)N[C@@H](CC(C)C)C(=O)NC(C)(C)C(=O)N[C@@H](C)C(=O)NCC(=O)NCC(=O)N1CCC[C@H]1C(=O)N[C@@H](CO)C(=O)N[C@@H](CO)C(=O)NCC(=O)N[C@@H](C)C(=O)N1CCC[C@H]1C(=O)N1CCC[C@H]1C(=O)N1CCC[C@H]1C(=O)N[C@@H](CO)C(N)=O)[C@@H](C)CC) [exendin-4 derivative SEQ ID NO: 18],EC50 hGlucagon-R (cAMP formation),[1],0.0086 nM
same,EC50 hGIP-R (cAMP formation),[2],2.16 nM
same,EC50 hGLP-1R (cAMP formation),[3],0.0083 nM
H[Aib]QGTFTSDLSKQK([γGlu-γGlu-Palmitoyl])DEQRAKLFIEWL[Aib]A[dA]GPSSGAPPPS-NH2 (N-terminus assumed; SMILES CCCCCCCCCCCCCCCC(=O)N[C@@H](CCC(=O)N[C@@H](CCC(=O)NCCCC[C@H](NC(=O)[C@H](CCC(N)=O)NC(=O)[C@H](CCCCN)NC(=O)[C@H](CO)NC(=O)[C@H](CC(C)C)NC(=O)[C@H](CC(=O)O)NC(=O)[C@H](CO)NC(=O)[C@@H](NC(=O)[C@H](Cc1ccccc1)NC(=O)[C@@H](NC(=O)CNC(=O)[C@H](CCC(N)=O)NC(=O)C(C)(C)NC(=O)[C@@H](N)Cc1c[nH]cn1)[C@@H](C)O)[C@@H](C)O)C(=O)N[C@@H](CC(=O)O)C(=O)N[C@@H](CCC(=O)O)C(=O)N[C@@H](CCC(N)=O)C(=O)N[C@@H](CCCNC(=N)N)C(=O)N[C@@H](C)C(=O)N[C@@H](CCCCN)C(=O)N[C@@H](CC(C)C)C(=O)N[C@@H](Cc1ccccc1)C(=O)N[C@H](C(=O)N[C@@H](CCC(=O)O)C(=O)N[C@@H](Cc1c[nH]c2ccccc12)C(=O)N[C@@H](CC(C)C)C(=O)NC(C)(C)C(=O)N[C@@H](C)C(=O)N[C@H](C)C(=O)NCC(=O)N1CCC[C@H]1C(=O)N[C@@H](CO)C(=O)N[C@@H](CO)C(=O)NCC(=O)N[C@@H](C)C(=O)N1CCC[C@H]1C(=O)N1CCC[C@H]1C(=O)N1CCC[C@H]1C(=O)N[C@@H](CO)C(N)=O)[C@@H](C)CC)C(=O)O)C(=O)O) [exendin-4 derivative SEQ ID NO: 7],EC50 hGlucagon-R (cAMP formation),[1],0.101 nM
same,EC50 hGIP-R (cAMP formation),[2],7.62 nM
same,EC50 hGLP-1R (cAMP formation),[3],0.0034 nM
"H[Aib]QGTFTSDLSKQLDEQRAKLFIEWL[Aib]AGGPSSGAPPPS-NH2 (N-terminus assumed; SMILES CC[C@H](C)[C@H](NC(=O)[C@H](Cc1ccccc1)NC(=O)[C@H](CC(C)C)NC(=O)[C@H](CCCCN)NC(=O)[C@H](C)NC(=O)[C@H](CCCNC(=N)N)NC(=O)[C@H](CCC(N)=O)NC(=O)[C@H](CCC(=O)O)NC(=O)[C@H](CC(=O)O)NC(=O)[C@H](CC(C)C)NC(=O)[C@H](CCC(N)=O)NC(=O)[C@H](CCCCN)NC(=O)[C@H](CO)NC(=O)[C@H](CC(C)C)NC(=O)[C@H](CC(=O)O)NC(=O)[C@H](CO)NC(=O)[C@@H](NC(=O)[C@H](Cc1ccccc1)NC(=O)[C@@H](NC(=O)CNC(=O)[C@H](CCC(N)=O)NC(=O)C(C)(C)NC(=O)[C@@H](N)Cc1c[nH]cn1)[C@@H](C)O)[C@@H](C)O)C(=O)N[C@@H](CCC(=O)O)C(=O)N[C@@H](Cc1c[nH]c2ccccc12)C(=O)N[C@@H](CC(C)C)C(=O)NC(C)(C)C(=O)N[C@@H](C)C(=O)NCC(=O)NCC(=O)N1CCC[C@H]1C(=O)N[C@@H](CO)C(=O)N[C@@H](CO)C(=O)NCC(=O)N[C@@H](C)C(=O)N1CCC[C@H]1C(=O)N1CCC[C@H]1C(=O)N1CCC[C@H]1C(=O)N[C@@H](CO)C(N)=O) [exendin-4 derivative SEQ ID NO: 24 (comparison compound, Leu in position 14)]",EC50 hGlucagon-R (cAMP formation),[4],3.09 nM
same,"EC50 hGIP-1 (cAMP formation, GIP receptor)",[5],114 nM
same,EC50 hGLP-1R (cAMP formation),[6],0.008 nM
H[Aib]QGTFTSDLSKQK([γGlu-Stearoyl])DEQRAKLFIEWL[Aib]A[dA]GPSSGAPPPS-NH2 (N-terminus assumed; SMILES CCCCCCCCCCCCCCCCCC(=O)N[C@@H](CCC(=O)NCCCC[C@H](NC(=O)[C@H](CCC(N)=O)NC(=O)[C@H](CCCCN)NC(=O)[C@H](CO)NC(=O)[C@H](CC(C)C)NC(=O)[C@H](CC(=O)O)NC(=O)[C@H](CO)NC(=O)[C@@H](NC(=O)[C@H](Cc1ccccc1)NC(=O)[C@@H](NC(=O)CNC(=O)[C@H](CCC(N)=O)NC(=O)C(C)(C)NC(=O)[C@@H](N)Cc1c[nH]cn1)[C@@H](C)O)[C@@H](C)O)C(=O)N[C@@H](CC(=O)O)C(=O)N[C@@H](CCC(=O)O)C(=O)N[C@@H](CCC(N)=O)C(=O)N[C@@H](CCCNC(=N)N)C(=O)N[C@@H](C)C(=O)N[C@@H](CCCCN)C(=O)N[C@@H](CC(C)C)C(=O)N[C@@H](Cc1ccccc1)C(=O)N[C@H](C(=O)N[C@@H](CCC(=O)O)C(=O)N[C@@H](Cc1c[nH]c2ccccc12)C(=O)N[C@@H](CC(C)C)C(=O)NC(C)(C)C(=O)N[C@@H](C)C(=O)N[C@H](C)C(=O)NCC(=O)N1CCC[C@H]1C(=O)N[C@@H](CO)C(=O)N[C@@H](CO)C(=O)NCC(=O)N[C@@H](C)C(=O)N1CCC[C@H]1C(=O)N1CCC[C@H]1C(=O)N1CCC[C@H]1C(=O)N[C@@H](CO)C(N)=O)[C@@H](C)CC)C(=O)O) [exendin-4 derivative SEQ ID NO: 6],EC50 hGlucagon-R (cAMP formation),[1],0.136 nM
same,EC50 hGIP-R (cAMP formation),[2],2.76 nM
same,EC50 hGLP-1R (cAMP formation),[3],0.0141 nM
